Our source for the Ki values is patent publication US20130012432A1 (Novo Nordisk, published 2013).

The term Ki denotes a measure of affinity in units of concentration, obtained from inhibition or displacement.

B1: Ac-c[Orn-Glu-His-D-Phe-Arg-Trp-Gly-Asp]-Pro-Ser-Lys-Glu-Glu-Ser-Ser-Lys({2-[2-(16-carboxyhexadecanoylamino)ethoxy]ethoxy}acetyl)-NH2 (peptide)
peptide: Ac-[Orn]EH[dF]RWGDPSKEESSK(X4)-NH2
modifications: lactam 1-8
SMILES: CC(=O)N[C@H]1CCCNC(=O)C[C@@H](C(=O)N2CCC[C@H]2C(=O)N[C@@H](CO)C(=O)N[C@@H](CCCCN)C(=O)N[C@@H](CCC(=O)O)C(=O)N[C@@H](CCC(=O)O)C(=O)N[C@@H](CO)C(=O)N[C@@H](CO)C(=O)N[C@@H](CCCCNC(=O)COCCOCCNC(=O)CCCCCCCCCCCCCCCC(=O)O)C(N)=O)NC(=O)CNC(=O)[C@H](Cc2c[nH]c3ccccc23)NC(=O)[C@H](CCCNC(=N)N)NC(=O)[C@@H](Cc2ccccc2)NC(=O)[C@H](Cc2c[nH]cn2)NC(=O)[C@H](CCC(=O)O)NC1=O
B2: Ac-c[Glu-His-D-Phe-Arg-Trp-Lys]-Pro-Pro-Arg-Asp-Lys(biscarboxymethyl)-Lys[(2-{2-[16-(tetrazol-5-yl)hexadecanoylamino]ethoxy}ethoxy)acetyl]-NH2 (peptide)
peptide: Ac-EH[dF]RWKPPRD[Lys(CH2CO2H)2]K([AEEA-Palmitoyl(16-(5-tetrazolyl))])-NH2
modifications: lactam 1-6
SMILES: CC(=O)N[C@H]1CCC(=O)NCCCC[C@@H](C(=O)N2CCC[C@H]2C(=O)N2CCC[C@H]2C(=O)N[C@@H](CCCNC(=N)N)C(=O)N[C@@H](CC(=O)O)C(=O)N[C@@H](CCCCN(CC(=O)O)CC(=O)O)C(=O)N[C@@H](CCCCNC(=O)COCCOCCNC(=O)CCCCCCCCCCCCCCCc2nnn[nH]2)C(N)=O)NC(=O)[C@H](Cc2c[nH]c3ccccc23)NC(=O)[C@H](CCCNC(=N)N)NC(=O)[C@@H](Cc2ccccc2)NC(=O)[C@H](Cc2c[nH]cn2)NC1=O
B3: Ac-c[Orn-His-D-Phe-Arg-Trp-Glu]-Pro-Ser-Ser-Ser-Glu-Glu-Ser-Ser-Lys({2-[2-(16-carboxyhexadecanoylamino)ethoxy]ethoxy}acetyl)-NH2 (peptide)
peptide: Ac-[Orn]H[dF]RWEPSSSEESSK([AEEA-C17 diacid])-NH2
modifications: lactam 1-6
SMILES: CC(=O)N[C@H]1CCCNC(=O)CC[C@@H](C(=O)N2CCC[C@H]2C(=O)N[C@@H](CO)C(=O)N[C@@H](CO)C(=O)N[C@@H](CO)C(=O)N[C@@H](CCC(=O)O)C(=O)N[C@@H](CCC(=O)O)C(=O)N[C@@H](CO)C(=O)N[C@@H](CO)C(=O)N[C@@H](CCCCNC(=O)COCCOCCNC(=O)CCCCCCCCCCCCCCCC(=O)O)C(N)=O)NC(=O)[C@H](Cc2c[nH]c3ccccc23)NC(=O)[C@H](CCCNC(=N)N)NC(=O)[C@@H](Cc2ccccc2)NC(=O)[C@H](Cc2c[nH]cn2)NC1=O
B4: Ac-c[Lys-His-D-Phe-Arg-Trp-Asp]-Pro-Pro-Arg-Asp-Lys(biscarboxymethyl)-Lys[(2-{2-[16-(tetrazol-5-yl)hexadecanoylamino]ethoxy}ethoxy)acetyl]-NH2 (peptide)
peptide: Ac-KH[dF]RWDPPRD[Lys(CH2CO2H)2]K([AEEA-Palmitoyl(16-(5-tetrazolyl))])-NH2
modifications: lactam 1-6
SMILES: CC(=O)N[C@H]1CCCCNC(=O)C[C@@H](C(=O)N2CCC[C@H]2C(=O)N2CCC[C@H]2C(=O)N[C@@H](CCCNC(=N)N)C(=O)N[C@@H](CC(=O)O)C(=O)N[C@@H](CCCCN(CC(=O)O)CC(=O)O)C(=O)N[C@@H](CCCCNC(=O)COCCOCCNC(=O)CCCCCCCCCCCCCCCc2nnn[nH]2)C(N)=O)NC(=O)[C@H](Cc2c[nH]c3ccccc23)NC(=O)[C@H](CCCNC(=N)N)NC(=O)[C@@H](Cc2ccccc2)NC(=O)[C@H](Cc2c[nH]cn2)NC1=O
B5: Ac-c[Lys-His-D-Phe-Arg-Trp-Glu]-Pro-Pro-Arg-Asp-Lys(biscarboxymethyl)-Lys[(2-{2-[16-(tetrazol-5-yl)hexadecanoylamino]ethoxy}ethoxy)acetyl]-NH2 (peptide)
peptide: Ac-KH[dF]RWEPPRD[Lys(CH2CO2H)2]K([AEEA-Palmitoyl(16-(5-tetrazolyl))])-NH2
modifications: lactam 1-6
SMILES: CC(=O)N[C@H]1CCCCNC(=O)CC[C@@H](C(=O)N2CCC[C@H]2C(=O)N2CCC[C@H]2C(=O)N[C@@H](CCCNC(=N)N)C(=O)N[C@@H](CC(=O)O)C(=O)N[C@@H](CCCCN(CC(=O)O)CC(=O)O)C(=O)N[C@@H](CCCCNC(=O)COCCOCCNC(=O)CCCCCCCCCCCCCCCc2nnn[nH]2)C(N)=O)NC(=O)[C@H](Cc2c[nH]c3ccccc23)NC(=O)[C@H](CCCNC(=N)N)NC(=O)[C@@H](Cc2ccccc2)NC(=O)[C@H](Cc2c[nH]cn2)NC1=O
B6: Ac-c[Glu-His-D-Phe-Arg-Trp-Lys]-Hyp-Hyp-Arg-Asp-Lys(biscarboxymethyl)-Lys[(2-{2-[16-(tetrazol-5-yl)hexadecanoylamino]ethoxy}ethoxy)acetyl]-NH2 (peptide)
peptide: Ac-EH[dF]RWK[Hyp][Hyp]RD[Lys(CH2CO2H)2]K([AEEA-Palmitoyl(16-(5-tetrazolyl))])-NH2
modifications: lactam 1-6
SMILES: CC(=O)N[C@H]1CCC(=O)NCCCC[C@@H](C(=O)N2C[C@H](O)C[C@H]2C(=O)N2C[C@H](O)C[C@H]2C(=O)N[C@@H](CCCNC(=N)N)C(=O)N[C@@H](CC(=O)O)C(=O)N[C@@H](CCCCN(CC(=O)O)CC(=O)O)C(=O)N[C@@H](CCCCNC(=O)COCCOCCNC(=O)CCCCCCCCCCCCCCCc2nnn[nH]2)C(N)=O)NC(=O)[C@H](Cc2c[nH]c3ccccc23)NC(=O)[C@H](CCCNC(=N)N)NC(=O)[C@@H](Cc2ccccc2)NC(=O)[C@H](Cc2c[nH]cn2)NC1=O
B7: Ac-c[Lys-His-D-Phe-Arg-Trp-Asp]-Pro-Ser-His-Glu-Lys(biscarboxymethyl)-Lys({2-[2-(16-carboxyhexadecanoylamino)ethoxy]ethoxy}acetyl)-NH2 (peptide)
peptide: Ac-KH[dF]RWDPSHE[Lys(CH2CO2H)2]K([AEEA-C17 diacid])-NH2
modifications: lactam 1-6
SMILES: CC(=O)N[C@H]1CCCCNC(=O)C[C@@H](C(=O)N2CCC[C@H]2C(=O)N[C@@H](CO)C(=O)N[C@@H](Cc2c[nH]cn2)C(=O)N[C@@H](CCC(=O)O)C(=O)N[C@@H](CCCCN(CC(=O)O)CC(=O)O)C(=O)N[C@@H](CCCCNC(=O)COCCOCCNC(=O)CCCCCCCCCCCCCCCC(=O)O)C(N)=O)NC(=O)[C@H](Cc2c[nH]c3ccccc23)NC(=O)[C@H](CCCNC(=N)N)NC(=O)[C@@H](Cc2ccccc2)NC(=O)[C@H](Cc2c[nH]cn2)NC1=O
B8: Ac-c[Lys-His-D-Phe-Arg-Trp-Glu]-Pro-Pro-His-Glu-Lys(biscarboxymethyl)-Lys({2-[2-(16-carboxyhexadecanoylamino)ethoxy]ethoxy}acetyl)-NH2 (peptide)
peptide: Ac-KH[dF]RWEPPHE[Lys(CH2CO2H)2]K([AEEA-C17 diacid])-NH2
modifications: lactam 1-6
SMILES: CC(=O)N[C@H]1CCCCNC(=O)CC[C@@H](C(=O)N2CCC[C@H]2C(=O)N2CCC[C@H]2C(=O)N[C@@H](Cc2c[nH]cn2)C(=O)N[C@@H](CCC(=O)O)C(=O)N[C@@H](CCCCN(CC(=O)O)CC(=O)O)C(=O)N[C@@H](CCCCNC(=O)COCCOCCNC(=O)CCCCCCCCCCCCCCCC(=O)O)C(N)=O)NC(=O)[C@H](Cc2c[nH]c3ccccc23)NC(=O)[C@H](CCCNC(=N)N)NC(=O)[C@@H](Cc2ccccc2)NC(=O)[C@H](Cc2c[nH]cn2)NC1=O
B9: Ac-c[Lys-His-D-Phe-Arg-Trp-Asp]-Pro-Pro-His-Ser-Lys(biscarboxymethyl)-Ser-Ser-Glu-Lys({2-[2-(16-carboxyhexadecanoylamino)ethoxy]ethoxy}acetyl)-NH2 (peptide)
peptide: Ac-KH[dF]RWDPPHS[Lys(CH2CO2H)2]SSEK([AEEA-C17 diacid])-NH2
modifications: lactam 1-6
SMILES: CC(=O)N[C@H]1CCCCNC(=O)C[C@@H](C(=O)N2CCC[C@H]2C(=O)N2CCC[C@H]2C(=O)N[C@@H](Cc2c[nH]cn2)C(=O)N[C@@H](CO)C(=O)N[C@@H](CCCCN(CC(=O)O)CC(=O)O)C(=O)N[C@@H](CO)C(=O)N[C@@H](CO)C(=O)N[C@@H](CCC(=O)O)C(=O)N[C@@H](CCCCNC(=O)COCCOCCNC(=O)CCCCCCCCCCCCCCCC(=O)O)C(N)=O)NC(=O)[C@H](Cc2c[nH]c3ccccc23)NC(=O)[C@H](CCCNC(=N)N)NC(=O)[C@@H](Cc2ccccc2)NC(=O)[C@H](Cc2c[nH]cn2)NC1=O
B10: Ac-c[Orn-His-D-Phe-Arg-Trp-Glu]-Pro-Ser-Lys-Glu-Glu-Ser-Ser-Glu-Lys({2-[2-(16-carboxyhexadecanoylamino)ethoxy]ethoxy}acetyl)-NH2 (peptide)
peptide: Ac-[Orn]H[dF]RWEPSKEESSEK([AEEA-C17 diacid])-NH2
modifications: lactam 1-6
SMILES: CC(=O)N[C@H]1CCCNC(=O)CC[C@@H](C(=O)N2CCC[C@H]2C(=O)N[C@@H](CO)C(=O)N[C@@H](CCCCN)C(=O)N[C@@H](CCC(=O)O)C(=O)N[C@@H](CCC(=O)O)C(=O)N[C@@H](CO)C(=O)N[C@@H](CO)C(=O)N[C@@H](CCC(=O)O)C(=O)N[C@@H](CCCCNC(=O)COCCOCCNC(=O)CCCCCCCCCCCCCCCC(=O)O)C(N)=O)NC(=O)[C@H](Cc2c[nH]c3ccccc23)NC(=O)[C@H](CCCNC(=N)N)NC(=O)[C@@H](Cc2ccccc2)NC(=O)[C@H](Cc2c[nH]cn2)NC1=O

Positions of bridges follow the written chain, without caps; N, C: chain ends. Non-standard residues stand in square brackets, D forms with d. Groups on a side chain read outwards from the residue. Primed or numbered codes have the meaning given here. *: point of attachment. X5 = NH(2-(2-(2-(17-carboxyheptadecanoylamino)ethoxy)ethoxy)ethyl), O=C(O)CCCCCCCCCCCCCCCCC(=O)NCCOCCOCCN*; X6 = (2-(2-(17-carboxyheptadecanoylamino)ethoxy)ethoxy)acetyl, O=C(O)CCCCCCCCCCCCCCCCC(=O)NCCOCCOCC(=O)*; X3 = (2-(2-(15-carboxypentadecanoylamino)ethoxy)ethoxy)acetyl, O=C(O)CCCCCCCCCCCCCCC(=O)NCCOCCOCC(=O)*; X4 = (2-(2-(16-carboxyhexadecanoylamino)ethoxy)ethoxy)acetyl, O=C(O)CCCCCCCCCCCCCCCC(=O)NCCOCCOCC(=O)*; biscarboxymethyl = Lys(biscarboxymethyl) = Nepsilon-bis(carboxymethyl)-L-lysine; Palmitoyl(16-(5-tetrazolyl)) = O=C(CCCCCCCCCCCCCCCc1nnn[nH]1)*; biscarboxymethyl(3) = Nepsilon-bis(carboxymethyl) on Lys; Lys(CH2CO2H)2 = N[C@@H](CCCCN(CC(=O)O)CC(=O)O)C(=O)O; C17 diacid = O=C(O)CCCCCCCCCCCCCCCC(=O)*; Hyp = O=C(O)[C@@H]1C[C@@H](O)CN1; Orn = NCCC[C@H](N)C(=O)O; Dab = NCC[C@H](N)C(=O)O; Dap = NC[C@H](N)C(=O)O; AEEA = NCCOCCOCC(=O)O

T1 sequence (P32245 whole entry): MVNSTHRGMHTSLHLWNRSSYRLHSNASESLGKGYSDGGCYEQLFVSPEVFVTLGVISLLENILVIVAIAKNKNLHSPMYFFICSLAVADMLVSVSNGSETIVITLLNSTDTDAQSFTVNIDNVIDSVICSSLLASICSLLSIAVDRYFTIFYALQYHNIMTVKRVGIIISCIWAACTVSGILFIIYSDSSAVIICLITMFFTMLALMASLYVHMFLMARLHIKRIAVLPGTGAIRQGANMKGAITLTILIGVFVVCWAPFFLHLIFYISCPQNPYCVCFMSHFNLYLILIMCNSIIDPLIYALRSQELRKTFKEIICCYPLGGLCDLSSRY

One test addresses T1, human MC4 receptor (human, UniProt P32245 1-332).
T1 construct: whole, on cells; Assayed as membranes of BHK cells stably expressing the receptor; also called melanocortin receptor subtype 4; melanocortin receptor 4
Put plainly: 125I-NDP-α-MSH displacement, BHK-human MC4 membranes (Assay V).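 Also: Filter-retained radioactivity read by gamma counting, with affinity obtained through non-linear regression fitting of the binding curves.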
Molecule Ac-[Dap]H[dF]RWDPPRDK(biscarboxymethyl(3))K([AEEA-Palmitoyl(16-(5-tetrazolyl))])-NH2 (lactam 1-6) yielded a Ki of 5.16 nM.
The same measure, in the same setting: with Ac-[Dap]H[dF]RWEPPRDK(biscarboxymethyl(3))K([AEEA-Palmitoyl(16-(5-tetrazolyl))])-NH2 (lactam 1-6) the figure was 0.7 nM; with Ac-[Orn]H[dF]RWDPPREK(biscarboxymethyl)SS-X5 (lactam 1-6), 0.93 nM; with B1, 125 nM.
Turning to B2, the Ki was found to be 24 nM.
The molecule Ac-[Dab]H[dF]RWDPPREK(biscarboxymethyl(3))SS-X5 (lactam 1-6) came in with a Ki of 12.5 nM.
Turning to Ac-EH[dF]RW[Dab][Hyp][Hyp]RDK(biscarboxymethyl(3))K([AEEA-Palmitoyl(16-(5-tetrazolyl))])-NH2 (lactam 1-6), affinity was put at a Ki of 105 nM.
For the molecule B3, affinity was put at a Ki of 25 nM.
Ac-EH[dF]RW[Orn]PPDK(biscarboxymethyl)K(X3)-NH2 (lactam 1-6): the Ki came out at 64 nM.
For Ac-EH[dF]RW[Dap][Hyp][Hyp]RDK(biscarboxymethyl(3))K([AEEA-Palmitoyl(16-(5-tetrazolyl))])-NH2 (lactam 1-6), the affinity corresponds to a Ki of 17 nM. This Ki lies about 3.8-fold lower than the previous one.
Consider B4, for which the inhibition constant Ki is 3.87 nM. Against the preceding molecule, the Ki is about 4.4-fold lower.
As to B5, the Ki stood at 179 nM.
B6 displayed a Ki of 21 nM.
B7 gave a Ki of 25 nM.
Same read-out and setting: with B8 the figure was 348 nM; with B9, 14 nM; with Ac-EH[dF]RW[Orn]PPDK(biscarboxymethyl)K(X6)-NH2 (lactam 1-6), 8.6 nM.
For Ac-EQ[dF]RW[Orn]PPRDK(biscarboxymethyl(3))K([AEEA-Palmitoyl(16-(5-tetrazolyl))])-NH2 (lactam 1-6), the Ki is 58 nM.
Regarding B10, the Ki is 38 nM.

The target in the next test is T2, MC1 receptor (UniProt Q01726 1-317, limits assumed).
T2 construct: whole, on cells; also called melanocortin receptor subtype 1; melanocortin receptor 1
T2 sequence (Q01726 whole entry): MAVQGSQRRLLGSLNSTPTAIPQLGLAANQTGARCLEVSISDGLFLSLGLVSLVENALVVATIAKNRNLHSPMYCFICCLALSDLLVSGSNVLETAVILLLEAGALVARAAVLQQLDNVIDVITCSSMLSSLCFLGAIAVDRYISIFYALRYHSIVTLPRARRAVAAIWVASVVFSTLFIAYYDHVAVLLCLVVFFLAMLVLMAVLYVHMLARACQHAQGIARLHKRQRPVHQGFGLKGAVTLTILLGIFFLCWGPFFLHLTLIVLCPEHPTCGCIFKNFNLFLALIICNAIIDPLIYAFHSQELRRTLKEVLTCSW
Nature of the test: 125I-NDP-α-MSH displacement, BHK-MC1 membranes (Assay IV).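 Also: membrane incubations stopped by filtration, retained radioactivity counted, Ki fitted by nonlinear regression to binding curves.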
Protocol: The MC1 receptor binding assay was performed on BHK cell membranes stably expressing the MC1 receptor. […] Test compounds were dissolved in DMSO. […] Alternatively, HSA may be substituted with ovalbumin. The samples were incubated at 30° C. for 90 min. in Costar round-bottom microtiter plates. Incubation was terminated by filtration on a Packard harvester filtermate. […] The filters were washed with ice-cold 0.9% NaCl 8-10 times. […] The plates were counted in a Topcounter (1 min/well).
The data were analysed by non-linear regression analysis of binding curves, using the Windows™ program GraphPad™ Prism (GraphPad Software, USA).
As to Ac-[Dap]H[dF]RWDPPRDK(biscarboxymethyl(3))K([AEEA-Palmitoyl(16-(5-tetrazolyl))])-NH2 (lactam 1-6), the Ki was 1830 nM.
For the molecule Ac-[Dap]H[dF]RWEPPRDK(biscarboxymethyl(3))K([AEEA-Palmitoyl(16-(5-tetrazolyl))])-NH2 (lactam 1-6), the Ki came out at 3850 nM.
Ac-[Orn]H[dF]RWDPPREK(biscarboxymethyl)SS-X5 (lactam 1-6) gave an inhibition constant (Ki) of 2500 nM.
